Changes are numbered by the printed parent chain.

Here are results for 17 molecules from patent WO2008074868A1 (dated 2008).

B1: 1E7 (VHH)
VHH: EVQLVESGGGLVQAGGSLRLSCAASGRTFSNYVMGWFRQAPGKEREFVAAISWSGVTTYHYSADSVKGRFTTSRDNDRNTAHLQMNSLKPEDTAVYYCAARGRTGSDPRKGDDYDYWGQGTQVTVSS
B2: 1D2 (VHH)
VHH: EVQLVESGGGLVQPGGSLRLSCAASGFTLDYYAIGWFRRAPGKEREGVSCTSSSDGSTYYADSVKGRFTISRDNAKNTVYLQMNSLKPEDTAVYYCATTFGDACTVVAGIPDQYDFGSWGQGTQVTVSS
B3: 4A9 (VHH)
VHH: EVQLVESGGGLVQAGGSLRLSCEASGFTLDYSGVGWFRQAPGKERELVSCISRGGDRAGYANSVKGRFTMSRDNAKNILYLQMNSLKPEDTAVYYCAATHSGSGCYDGAIDYWGKGTLVTVSS
B4: 4B7 (VHH)
VHH: EVQLVESGGGLVQAGGSLRLSCAASGFTFDDYAIGWFRQAPGKEREGVSCISSRDGITYYADSVKGRFTISSDNAKNTVYLQMNSLKPEDTAVYYCAADLVGSFPCPVAAYDYWGQGTQVTVSS
B5: 1D7 (VHH)
VHH: EVQLVESGGGLVQSGGSLRLSCAASGRAFNYYAMGWFRQAPGKERELVAVINWSGGTTSYADSVKGRFTISRSNAKNTVYLQMSSLKPEDTAVYYCAADSIYRTSKDYNYWGQGTQVTVSS
B6: 4C9 (VHH)
VHH: EVQLVESGGGLVQAGDSLRLSCTASERPFSTYVMGWFRRAPGKEREFVGGITWSGINAWYTDSVLGRFTISSDNAKNTVYLQMNSLKPEDTAVYYCAAASGVGRYRYELQYDYWGQGTQVTVSS
notes: Tested as periplasmic extract
B7: 4C8 (VHH)
VHH: EVQLVESGGGLVQAGDSLRLSCAASGRTYTPYVMGWFRRAPGKEREFVGAVSWSGTNTWYTDSVKGRFTISRDNAKNTVYLQMNSLKPEDTAVYYCAAGDGVGIYRYEHQYDYWGQGTQVTVSS
notes: Tested as periplasmic extract
B8: 4A6 (VHH)
VHH: EVQLVESGGGLVQPGGSLRLSCAASPFTLDYYAIGWFRQAPGKEREGVSCSTSHGKTYHADSVKGRFTISRDNAKNTVYLQMNSLKPEDTAVYYCAAGACMGGSGYEADFGSWGQGTQVTVSS
notes: Tested as periplasmic extract; also called 4Aό
B9: 4C3 (VHH)
VHH: EVQLVESGGGLVQAGGSLRLSCAASGRTFSSYAMAWFRQAPGEEREFVATISVSGGYTYYADSVKGRFTISRDNAKNTVYLQMNTLKPEDTAVYYCAAGDSSSWLEHMYDYWGQGTQVTVSS
notes: Tested as periplasmic extract
B10: 4B8 (VHH)
VHH: EVQLVESGGGLVQAGGSLRLSCAASGGTYSGNAMAWFRQAPGKEREFVAGIDWSSENTRYIDSVKGRFTISRDNAKNTMYLQMNSLKPEDTAVYYCAAGTSWGALASRLEAAYSSWGQGTQVTVSS
notes: Tested as periplasmic extract
B11: 4B5 (VHH)
VHH: B10 VHH with G16D, G27R, G31R, N77S
notes: Tested as periplasmic extract
B12: 4B6 (VHH)
VHH: B10 VHH with E1K, A14V, A23V, G27R, S30G, I61T, A111N, S115A
notes: Tested as periplasmic extract
B13: 4C4 (VHH)
VHH: EVQLVESGGGLVQAGDSLRLSCAASGRPFMSYVMGWFRRAPGKEREFVGGINWGSGNTWYTDSVLGRFTISRDNAKNTVYLQMNSLKPEDTAVYYCATAAGVGYYRYERQYDYWGQGTQVTVSS
notes: Tested as periplasmic extract
B14: 4C5 (VHH)
VHH: B13 VHH with M30S, S31A, G54N, G56A, R72K, T98A, A100G
notes: Tested as periplasmic extract; also called 4CS
B15: 4B10 (VHH)
VHH: EVQLVESGGGLVQAGDSLRLSCAASGRTFSSYAMGWFRQAPGTERQFVARITGKGDSTDYADSVRGRFTISRDNAKNTVYLQMNSLKPEDTAVYYCAADAFNSLLQAGRAEYWGQGTQVTVSS
notes: Tested as periplasmic extract; also called 4B1Θ
B16: 4B1 (VHH)
VHH: B8 VHH with A23V, S25A, P26G, S51I, H54D, K56R, H59Y, N73M, N76K, T77M
notes: Tested as periplasmic extract; also called 4Bl
B17: 4D9 (VHH)
VHH: B2 VHH with A33D, R39Q
notes: Purified Nanobody

T1 sequence (P01833 19-764): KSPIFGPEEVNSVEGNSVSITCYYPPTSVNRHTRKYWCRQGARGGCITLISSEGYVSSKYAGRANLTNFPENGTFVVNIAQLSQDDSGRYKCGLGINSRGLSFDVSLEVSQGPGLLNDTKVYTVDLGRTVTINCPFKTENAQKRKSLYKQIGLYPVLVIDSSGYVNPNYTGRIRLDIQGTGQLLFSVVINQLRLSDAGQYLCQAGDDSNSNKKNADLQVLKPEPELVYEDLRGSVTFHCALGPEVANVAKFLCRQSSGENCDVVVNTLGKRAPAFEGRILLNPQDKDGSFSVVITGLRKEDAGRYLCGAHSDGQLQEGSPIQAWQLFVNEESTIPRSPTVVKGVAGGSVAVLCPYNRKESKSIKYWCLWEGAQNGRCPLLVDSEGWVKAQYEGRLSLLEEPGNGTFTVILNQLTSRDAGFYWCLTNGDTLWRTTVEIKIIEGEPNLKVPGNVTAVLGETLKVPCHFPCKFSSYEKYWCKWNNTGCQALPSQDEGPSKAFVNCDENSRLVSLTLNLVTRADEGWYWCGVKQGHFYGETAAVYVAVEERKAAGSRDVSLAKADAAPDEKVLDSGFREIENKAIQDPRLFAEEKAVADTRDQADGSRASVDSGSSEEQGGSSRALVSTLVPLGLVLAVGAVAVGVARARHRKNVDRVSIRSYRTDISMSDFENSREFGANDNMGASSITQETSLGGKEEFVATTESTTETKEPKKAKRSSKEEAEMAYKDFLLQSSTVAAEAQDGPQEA

One assay concerns the target T1, human plgR overexpressed in MDCK cells (human, UniProt P01833 19-764).
T1 construct: whole, on cells; also called hpIgR; human polymeric immunoglobulin receptor
The assay is described as follows: immunofluorescence on MDCK cells overexpressing human plgR, 3 uM Nanobody at 4C.
Turning to B1, the binding result is “binds”.

For B2, the binding result is listed as “binds”.

The next assay addresses T2, human serum albumin (human, UniProt P02768 25-609).
T2 construct: also called HSA
Description: SPR (Biacore T100), periplasmic extracts over immobilized human serum albumin, pH 7 and pH 5. (SPR reads the build-up and loss of mass on a sensor chip optically.)
Take B3: the fold difference in off rate (pH 5 against pH 7) is 0.54 fold.

For a further assay, the target named is T1, human plgR overexpressed in MDCK cells. The assay is described as follows: immunoprecipitation from cell lysates with His-tagged Nanobody and talon beads, blot with a-hSC.
As to B4, the binding result is given as “binds”.

Take B5: the binding result is “binds”.

For a further assay, the target named is T2, human serum albumin. Description: SPR (Biacore T100), periplasmic extracts over immobilized human serum albumin.
For the molecule B6, the binding result is reported as “binds”.

As to B7, the binding result is “binds”.

As for B8, the binding result was “binds”.

With B9, the binding result was “binds”.

Regarding B10, the binding result is listed as “binds”.

On to B11, for which the binding result was “binds”.

Turning to B12, the binding result is recorded as “binds”.

Consider B13, for which the binding result was “binds”.

As to B14, the binding result was “binds”.

Another assay addresses T2, human serum albumin. The assay is described as follows: SPR (Biacore T100) over immobilized human serum albumin, pH 7, pH 6 and pH 5.
B15: the binding result is recorded as “binds”.

Turning to B16, the binding result was “binds”.

The target of a further assay is T3, ectodomain of human plgR (R&D Systems Cat # 2717-PG) (human, UniProt P01833 19-638).
T3 construct: extracellular domain; Immobilized at 5 ug/ml on Maxisorp plates; also called plgR ectodomain; pIgR
T3 sequence (P01833 19-638): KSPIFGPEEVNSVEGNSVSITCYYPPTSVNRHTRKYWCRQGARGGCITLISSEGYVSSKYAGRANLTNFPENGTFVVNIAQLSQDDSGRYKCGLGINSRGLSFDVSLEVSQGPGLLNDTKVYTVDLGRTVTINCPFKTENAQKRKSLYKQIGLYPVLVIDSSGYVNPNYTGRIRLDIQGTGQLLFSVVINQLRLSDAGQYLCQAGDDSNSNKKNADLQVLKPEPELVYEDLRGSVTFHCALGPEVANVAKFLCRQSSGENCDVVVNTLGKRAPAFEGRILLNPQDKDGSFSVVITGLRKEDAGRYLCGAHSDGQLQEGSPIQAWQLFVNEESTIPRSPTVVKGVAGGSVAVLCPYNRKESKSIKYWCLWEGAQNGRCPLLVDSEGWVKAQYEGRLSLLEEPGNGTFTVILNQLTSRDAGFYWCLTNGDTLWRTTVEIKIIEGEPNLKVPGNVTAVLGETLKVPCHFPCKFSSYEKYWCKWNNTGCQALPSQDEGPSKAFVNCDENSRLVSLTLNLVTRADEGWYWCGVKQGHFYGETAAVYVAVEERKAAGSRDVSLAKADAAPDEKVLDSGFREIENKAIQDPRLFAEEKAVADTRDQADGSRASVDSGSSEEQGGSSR
Description: competition ELISA, dilution series of purified Nanobody against IgA on immobilized plgR ectodomain.
Consider B1, for which the binding result is reported as “binds”.

In the case of B2, the binding result is “binds”.

As for B17, the binding result is recorded as “binds”.

In the case of B5, the binding result was “binds”.
